In paper PMC11850223:
Changes are numbered by the printed parent chain. Blank lines part the entries; values can stand above or below the molecule they belong to.

Assays:
[1] = target: Hera_1–510_K51Q (ATPase-deficient variant) (Thermus thermophilus); assay: SEC
[2] = target: Hera_1–419_K51Q (ATPase-deficient variant) (Thermus thermophilus); assay: SEC
[3] = target: T1, cis-heterodimer Hera/Hera_208-419 (Thermus thermophilus, UniProt O07897;O07897 1-510;208-419); assay: fluorescence anisotropy
T1 sequence 1: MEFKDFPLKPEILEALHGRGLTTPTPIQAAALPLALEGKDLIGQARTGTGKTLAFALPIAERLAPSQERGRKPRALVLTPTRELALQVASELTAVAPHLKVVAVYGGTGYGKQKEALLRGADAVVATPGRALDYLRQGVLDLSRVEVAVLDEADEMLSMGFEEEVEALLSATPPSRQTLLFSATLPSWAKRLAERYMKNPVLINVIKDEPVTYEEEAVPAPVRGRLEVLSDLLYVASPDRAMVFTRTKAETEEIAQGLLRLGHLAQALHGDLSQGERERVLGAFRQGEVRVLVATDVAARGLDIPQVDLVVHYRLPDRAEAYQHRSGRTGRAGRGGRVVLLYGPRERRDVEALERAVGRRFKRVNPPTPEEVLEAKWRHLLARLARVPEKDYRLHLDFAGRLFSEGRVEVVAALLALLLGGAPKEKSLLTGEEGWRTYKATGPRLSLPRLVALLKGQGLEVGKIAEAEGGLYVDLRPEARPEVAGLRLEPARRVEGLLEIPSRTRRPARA
T1 sequence 2: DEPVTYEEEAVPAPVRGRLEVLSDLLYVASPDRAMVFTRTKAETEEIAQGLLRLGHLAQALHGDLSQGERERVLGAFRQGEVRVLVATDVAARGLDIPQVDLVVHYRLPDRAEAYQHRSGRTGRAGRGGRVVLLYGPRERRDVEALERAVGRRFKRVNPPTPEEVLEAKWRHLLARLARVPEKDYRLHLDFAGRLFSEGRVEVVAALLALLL

Hera [4] = target: T2, Hera (Thermus thermophilus, UniProt O07897 1-510); assay: fluorescence anisotropy
T2 sequence: T1 sequence 1

Hera_K51Q [5] = target: T3, Hera_K51Q (Thermus thermophilus, UniProt O07897 1-510, K51Q); assay: fluorescence anisotropy
T3 sequence: T1 sequence 1 with K51Q

[6] = target: T4, Hera/Hera_K51Q heterodimer (Thermus thermophilus, UniProt O07897;O07897 1-510;1-510, K51Q); assay: fluorescence anisotropy
T4 sequence 1: T1 sequence 1
T4 sequence 2: T1 sequence 1 with K51Q

[7] = target: T5, trans-heterodimer Hera_1-419/Hera_370-510 (Thermus thermophilus, UniProt O07897;O07897 1-419;370-510); assay: stopped-flow fluorescence
T5 sequence 1: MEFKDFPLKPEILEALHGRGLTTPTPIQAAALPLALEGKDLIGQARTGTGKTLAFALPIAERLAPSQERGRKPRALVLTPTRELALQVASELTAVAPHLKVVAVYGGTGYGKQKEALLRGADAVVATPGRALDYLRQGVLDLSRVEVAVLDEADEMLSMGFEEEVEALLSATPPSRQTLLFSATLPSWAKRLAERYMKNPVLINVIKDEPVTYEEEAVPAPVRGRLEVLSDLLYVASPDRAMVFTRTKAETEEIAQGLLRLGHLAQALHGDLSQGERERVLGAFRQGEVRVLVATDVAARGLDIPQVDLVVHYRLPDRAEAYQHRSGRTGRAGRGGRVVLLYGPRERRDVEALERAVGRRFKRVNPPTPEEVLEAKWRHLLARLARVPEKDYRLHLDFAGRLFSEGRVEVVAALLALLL
T5 sequence 2: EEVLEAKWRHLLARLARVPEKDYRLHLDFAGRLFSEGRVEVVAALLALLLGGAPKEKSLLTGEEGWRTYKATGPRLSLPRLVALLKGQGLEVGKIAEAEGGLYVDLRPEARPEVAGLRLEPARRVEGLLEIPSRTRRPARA

Hera [8] = target: T2, Hera; assay: stopped-flow fluorescence
Hera_K51Q [9] = target: T3, Hera_K51Q; assay: stopped-flow fluorescence
[10] = target: T4, Hera/Hera_K51Q heterodimer; assay: stopped-flow fluorescence
[11] = target: T6, Hera/Hera_1-419 heterodimer, dye-labelled in trans (Thermus thermophilus, UniProt O07897;O07897 1-510;1-419, E115C;E227C); assay: single-molecule FRET
T6 sequence 1: T1 sequence 1
T6 sequence 2: T5 sequence 1 with E115C, E227C

[12] = target: T7, Hera/Hera_1-419 heterodimer, dye-labelled in cis (Thermus thermophilus, UniProt O07897;O07897 1-510;1-419, E115C;E227C); assay: single-molecule FRET
T7 sequence 1: T1 sequence 1 with E115C, E227C
T7 sequence 2: T5 sequence 1

Hera_E115C_E227C = target: T8, Hera_E115C_E227C (Thermus thermophilus, UniProt O07897 1-510, E115C;E227C); assay: single-molecule FRET
T8 sequence: T1 sequence 1 with E115C, E227C

[13] = target: T9, Hera_1-419_E115C_E227C/Hera_1-419 heterodimer (Thermus thermophilus, UniProt O07897;O07897 1-419;1-419, E115C;E227C); assay: single-molecule FRET
T9 sequence 1: T5 sequence 1 with E115C, E227C
T9 sequence 2: T5 sequence 1

[14] = target: T5, trans-heterodimer …; assay: fluorescence anisotropy
[15] = target: T10, Hera/Hera_1-419 heterodimer (Thermus thermophilus, UniProt O07897;O07897 1-510;1-419); assay: fluorescence anisotropy
T10 sequence 1: T1 sequence 1
T10 sequence 2: T5 sequence 1

[16] = target: T1, cis-heterodimer Hera/Hera_208-419; assay: stopped-flow fluorescence

stoichiometry N [1]: 2
Molecule: Hera_1–510_K51Q (ATPase-deficient variant) (enzyme)

stoichiometry N [2]: 2
Molecule: Hera_1–419_K51Q (ATPase-deficient variant) (domain or fragment)

B1: fl-32mer (structured_RNA)
RNA: GCAGGUCCCAAGGGUUGGGCUGUUCGCCCAUU
Kd [3]: 0.126 ± 0.009 µM
Kd (Hera [4]): 0.06 ± 0.01 µM
Kd (Hera_K51Q [5]): 0.17 ± 0.02 µM
Kd [6]: 0.08 ± 0.02 µM
Kd [7]: 7.3 ± 1 µM
Kd (Hera [8]): 0.49 ± 0.22 µM
Kd (Hera_K51Q [9]): 1.5 ± 0.7 µM
Kd [10]: 0.13 ± 0.07 µM

B2: 32mer (smFRET) (structured_RNA)
RNA: B1 RNA
binding result [11]: binds
binding result [12]: binds
binding result (Hera_E115C_E227C): binds
binding result [13]: binds

B3: fl-32/9mer (structured_RNA)
RNA 1: B1 RNA
RNA 2: UUGGGACCU
Kd [14]: 16 ± 6 µM
Kd [3]: 1.4 ± 0.5 µM
Kd (Hera [4]): 2 ± 0.3 µM
Kd (Hera_K51Q [5]): 2.1 ± 0.4 µM
Kd [15]: 3 ± 0.3 µM
Kd [6]: 2.5 ± 0.4 µM
Kd [16]: 1.8 ± 0.8 µM
Kd (Hera [8]): 3 ± 1 µM
